Consider 14 sequences from a protein production outcome set (Wang et al. 2014).

The nature of this data set: label from the status in PepcDB records.

On to “MTDKKSENKTIQGASSLSLENRKILSITGVNEVINFDEEKISLKTDLGPLLIKGSELKMNKLDVQNGEVIIGGFISNIDYLNKKNKRKRNINLLSKIFKLEHHHHHH”, for which the protein production entry is “not failed”. Then “MTDKTSLSYKDAGVDIDAGNALVGRIKGVVKKTRRPEVMGGLGGFGALCALPQKYREPVLVSGTDGVGTKLRLAMDLKRHDTIGIDLVAMCVNDLVVQGAEPLFFLDYYATGKLDVDTASAVISGIAEGCLQSGCSLVGGETAEMPGMYHGEDYDVAGFCVGVVEKSEIIDGSKVSDGDVLIALGSSGPHSNGYSLVRKILEVSGCDPQTTELDGKPLADHLLAPTRIYVKSVLELIEKVDVHAIAHLTGGGFWENIPRVLPDNTQAVIDESSWQWPEVFNWLQTAGNVEHHEMYRTFNCGVGMIIALPAPEVDKALALLNANGENAWKIGIIKASDSEQRVVIE”, with “not failed”.

As for “MTDMNPDIEKDQTSDEVTVETTSVFRADFLSELDAPAQAGTESAVSGVEGLPPGSALLVVKRGPNAGSRFLLDQAITSAGRHPDSDIFLDDVTVSRRHAEFRLENNEFNVVDVGSLNGTYVNREPVDSAVLANGDEVQIGKFRLVFLTGPKQGEDDGSTGGP”, the protein production result was “failed”.

Regarding “MTDPLQRPRRKDPLRRTTLGHVPPRLRSRAAMEMATHAAQGRFVLQTCESCDRATYPPRDRCPNCWGELVWREQDAGGQVAAETTIRHSTDTYFRNHMPWRIGTVRLDAGPTAIVHLHGEAGVGDRVNMVLKLDRGGNPALFAMPRGDVPNMQDDPQFRSFTADPKHRRVLVTDGRTDTGQAIARALLDAGAAKVFVGDCAPLMRFAGKQQLAALDGAELVPLDVTDTHSVGNLAAQLGGRIDIVINTAGQVREGGVAFGAKLSDLQAGLDTGVVGLMRLAQAFGPALGARSDDGVNSAAAFLDVVPVSGLSGQSGYSGTAASAAARLSLLSGFRGEMQKAGIRVMSVLTGPVDDAWHQRLPQPKTAPSHLARTVVAALRDGQEISCAGDVAKDLFARWRADPLLTMREENR”, the protein production entry is “failed”.

In the case of “MTDPSQMQAEELLSFLEEGGTLKMLHDVSADTIEHIYAVGYNFFQSGKIEQAAKVFQLLSMLDHYQARFFIGLGAARQELGEYLQAIDAYSYAALVDINDPRPPFHSAECHLKLEQLTEAESGFYSAKEMSAGKSQYADLHQRAGIMLEAVRNKRSNLEHHHHHH”, the protein production entry is given as “not failed”. Next, “MTDQIREHLVSMLVHNKPGVMRKVANLFARRGFNISSITVGESETPGLSRLVIMVKGDDKTIEQIEKQAYKLVEVVKVTPIDPLPENRVEREMALIKVRFDEDKQEIFQLVEIFRGKIIDVSREGAIIEITGARSKVEAFINLLPQKQVEEIARTGIVAMNRWNVKEGEGF”: “not failed”.

In the case of “MTDQSVRIIEAALRLYMKKPPHEVSIEEIAREAKVSKSLIFYHFESKQKLLEEAVMHAFRKMMEEFNPRSVEEVVDYGIGFIAERREFIEFMMYALSQVRIEELERMFGEALEKVASLFEGCRHPRETAIALMAMLDGLSIYSLYFDLGKLEKYREIAMEFVESRRVRA”, the protein production result is “not failed”. Next, “MTDTLLVTSTNAGTGKTAVSLALARLAGDRDRTVGYMKPKGTRLQSNVGKTLDADPLLARDLLDLDAEIHDLEPVVYSPTFIQGAVRGREDSANLADRVRDAYDELATDRDVMLVEGAGTPTTGGIVDLTDGDIAALLDARAIVVADYTGPSDVDDVLAAADALGDRCAGVVFNAVADAVYDDVESEVTPFLESQGIPVLGVLPVERDLAGVTVDDLASELGATVLTEDTATTDAIVERFLVGAMSSESALSHFRRTKDAAVITGGDRADIQTAALDAPGVQCLVLTGGHRPSGAVLGKATDAGVPVLSVDADTLTTLERAEELVRDGRVRDEHTVDVMQRLLHDHADTDRLLD”: “failed”. Then “MTDTPVPSEATASGWRRALPVIISLAILAMALHALSSQFTDHGYRQIRQAFRALGAGQIALTLLLGLSSYACLVGFDWVGLKRTGKRLHPARVGITAFMAHAVGQTLGFAALTGGAVRLRGYGSVGLTLAEIGQVVLMSTLGFIFGAWVLLGIALMLEPEAAARALPIAAEGIRIAGIALLAGYLAMLVLVGRHGREFGIRSHRFWLPDRTTVLGVTALSVVELGLAAAAFYVLLPPDPGTGYFGFIGIWLVAVVAGLISTVPAGLGVFEWSLLKLLPHVTPAAVLAAALAYRVTYYIVPLLISVAMAAATGLRAPVRASASTARTVWKTLRPWLPQILALAVFAVGAALVIDGTLPTPRARQEVAPLPLIETSHLLVSLGGMLLLLIGQGLQRRSHSAWVLALGVCVLLPPLSLLRGSHISVSLSAALAAVALWAARREFYRQGALLDEAWSWRWLSNLGLVLVATFWLLFFVYSHVEYSNDLWWQFATSANAPRALRALLILCVGVILFGTARLLRGGRRPMPPADAQALQALAPVLASSADTQACLALTGDKAFLRDEKGLGFVMMQRYGGSLISMGDPVGPPEVARALIWRFREEADHMGLRPVFYQVGEKYWQTYLDMGLTLVKLGEEAIVPLEGFTLEGRDRADLRQAWNRGKRGGLSFRMLQPEQVDAVMAELGEVSEQWLDEKAGEEKGFSLGSFDPDYLRRFPMAVAEAEGKIVAFANVWCAPAGGELSVDLMRHSAQAPKGTMDFLFIELFLWGHANGYTRFSLGMAPLSGLAEHRLAGRWNRFASLVARHGERFYGFSGLRRFKSKFAPTWRPRYLVAPGGMHLPAALLDVTRLISVDPGRQD”, with “failed”; and “MTDTRPAQSLGPGLQPETRSLGDEPVRLVDTTMLYAPRSGGVRRYLSSKRAWLASHRPDVRHTLVVPGARDFHDGRGQVSIYAAPLPFGAGYRWPVVKQTWMERLIRQQPDLIEAGDPYTPGLAALRAGDALGVPVVGFCHTDLGKLAALHIGDWAEKPVQKRWAAIYRQFDQAVAPSRFIAGRLIEAGVRDAIGLPLGVDTAIFHPERGDRDGLRRRLGLSPKDRLLVFAGRPAREKKLDVLVAAVERLGDPYKLLFVGAGGGAPVSDRTLCIDYVRDPVELASILASCDAFVHANDNEPFGLIVLEAMACGLPVVGVSAGGVAESVDAAVGQLAVASEATAFADAIEALFERDVTVVGEAARRRAVERHGWDAVFTELCLIYDRLTGRRAFSSASAHAGH”, with “failed”.

As for “MTDTSTADVDLVGEEMALNVARTALFAALMGAFAYVSFPYPLSPAPVTLQVLGVFLAGLLLGPLWGGAAMVVYLLAGVLGAPVFSAGEAGIGVILGPQGGYLLSYPFAAAIVGGIVHRGTDIKPLETVSAALMIAAMILSTVVIYAFGIPFMWWNLEMTLLNAVIAGGVVFIPAEAAKMAAAIGIVRSDAIRAE”, the protein production entry is “failed”. Then “MTDVRHCPAVLIAAPASGQGKTTVTAALARLHRNRGRKVRVFKCGPDFLDPMILERASGAAVYQLDMWMVGEQESRRLLWEAAGEADLILIEGVMGLFDGTPSSADLARHFGVPVLGVIDGTAMAQTFGALALGLARYQPDLPFAGVLANRVGTLRHAQLLEGSLTEGLRWYGALSRETDIELPSRHLGLVQASELNDLDLRLDAAAEALASSCQVELPPAVSFAAPTPVACAPLLKGVRIAVARDEAFAFTYGASLDLLRAMGAQLSFFSPIHDTQLPDADSLYLPGGYPELHHQALARNSSMLQAIRAHHAAGKPLLAECGGMLYLLDSLTDVEGQRAELLGLLPGDAVMQKRLAALALQAVDLPEGSLRGHTYHHSLTSTELLPIARGLSPNGGRGAEAVYRQGRMTASYVHFYFPSNPAAVAALFAPGAPVEPVLAEGVAGELEHHHHHH”, with “failed”; and “MTDYASLLMSLTSGSALDSGCMEQLIQEGLYVTPALFSVDRAALWVLDKDEQAYLCEADFFDGMIDHRSSQRLTKKEDAELFSFLESTSEIIINNYFTYESFGLNTSRILSRFQLCSLLLIPLQIKGENRGFIFLGDSQKNIEWSPDVLFASRILVQLFERALLALDNSVAETKLQHQYQLMSEIEKLAK”, with “failed”.

For “MTDYGEEQRNELEALESIYPDSFTVLSENPPSFTITVTSEAGENDETVQTTLKFTYSEKYPDEAPLYEIFSQENLEDNDVSDILKLLALQAEENLGMVMIFTLVTAVQEKLNEIVDQIKTR”, the protein production result is on record as “not failed”.
